Measurements taken from publication PMC11291249, “Investigating the biosynthesis and roles of the auxin phenylacetic acid during Pseudomonas syringae-Arabidopsis thaliana pathogenesis” (Frontiers in Plant Science, 2024).

Experiments:
[1] = system: O=CCc1ccccc1; assay: purified protein; settings: 5 mM NAD+, 100 mM Tris-HCl pH 8.0, 100 mM KCl, 25 °C
[2] = system: NC(=O)c1ccc[n+]([C@@H]2O[C@H](COP(=O)(O)OP(=O)(O)OC[C@H]3O[C@@H](n4cnc5c(N)ncnc54)[C@H](O)[C@@H]3O)[C@@H](O)[C@H]2O)c1; assay: purified protein; settings: 1 mM PAAld, 100 mM Tris-HCl pH 8.0, 100 mM KCl, 25 °C, varied: cofactor

## AldA (Pseudomonas syringae pv. tomato str. DC3000)
[1]
  Km: 645 ± 113 µM
  kcat: 18.7 ± 1.3 s⁻¹
  kcat/Km: 29000 M⁻¹ s⁻¹
[2]
  Km: 11.2 ± 1.2 µM
  kcat: 1.4 ± 0.0183 s⁻¹
  kcat/Km: 125000 M⁻¹ s⁻¹
